From patent US20160022764A1 (RHYTHM PHARMACEUTICALS, published 2016)
Bridge positions count the residues as written; N and C are the ends. Square brackets hold non-standard residues; d marks the D form. Ends that are not written are not given here. dPhe(4-F) = N[C@H](Cc1ccc(F)cc1)C(=O)O

Key:
Experiment in all cases: cell-based or functional assay
melanocortin-1 receptor = melanocortin-1 receptor (human, UniProt Q01726 1-317)
melanocortin-3 receptor = melanocortin-3 receptor (human, UniProt P41968 1-323)
melanocortin-4 receptor = melanocortin-4 receptor (human, UniProt P32245 1-332)
melanocortin-5 receptor = melanocortin-5 receptor (human, UniProt P33032 1-325)
Chain of melanocortin-5 receptor (P33032 whole entry): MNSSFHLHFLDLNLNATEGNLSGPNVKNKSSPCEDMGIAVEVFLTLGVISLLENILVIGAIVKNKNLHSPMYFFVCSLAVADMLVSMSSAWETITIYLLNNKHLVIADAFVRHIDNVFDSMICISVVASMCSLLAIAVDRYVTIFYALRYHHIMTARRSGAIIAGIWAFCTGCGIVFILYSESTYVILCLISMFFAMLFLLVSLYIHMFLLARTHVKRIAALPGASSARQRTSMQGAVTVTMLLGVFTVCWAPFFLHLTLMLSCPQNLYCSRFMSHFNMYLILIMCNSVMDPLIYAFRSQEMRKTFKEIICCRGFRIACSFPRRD

Chain of melanocortin-4 receptor (P32245 whole entry): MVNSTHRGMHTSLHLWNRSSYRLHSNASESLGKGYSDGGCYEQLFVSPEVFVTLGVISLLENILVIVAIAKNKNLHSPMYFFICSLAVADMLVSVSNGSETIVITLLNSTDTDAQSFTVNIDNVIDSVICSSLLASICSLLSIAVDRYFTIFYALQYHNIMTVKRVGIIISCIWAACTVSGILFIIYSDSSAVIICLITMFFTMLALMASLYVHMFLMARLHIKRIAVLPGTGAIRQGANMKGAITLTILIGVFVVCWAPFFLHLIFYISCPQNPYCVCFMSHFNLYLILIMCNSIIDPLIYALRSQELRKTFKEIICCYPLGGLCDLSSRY
Chain of melanocortin-1 receptor (Q01726 whole entry): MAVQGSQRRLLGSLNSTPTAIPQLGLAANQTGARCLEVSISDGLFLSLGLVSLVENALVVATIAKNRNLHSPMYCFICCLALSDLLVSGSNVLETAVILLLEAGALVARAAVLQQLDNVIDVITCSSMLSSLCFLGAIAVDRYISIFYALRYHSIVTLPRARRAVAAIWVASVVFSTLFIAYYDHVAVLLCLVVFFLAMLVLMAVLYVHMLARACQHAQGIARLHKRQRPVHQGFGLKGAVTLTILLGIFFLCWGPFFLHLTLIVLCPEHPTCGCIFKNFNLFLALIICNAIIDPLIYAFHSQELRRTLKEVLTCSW
Chain of melanocortin-3 receptor (P41968 whole entry): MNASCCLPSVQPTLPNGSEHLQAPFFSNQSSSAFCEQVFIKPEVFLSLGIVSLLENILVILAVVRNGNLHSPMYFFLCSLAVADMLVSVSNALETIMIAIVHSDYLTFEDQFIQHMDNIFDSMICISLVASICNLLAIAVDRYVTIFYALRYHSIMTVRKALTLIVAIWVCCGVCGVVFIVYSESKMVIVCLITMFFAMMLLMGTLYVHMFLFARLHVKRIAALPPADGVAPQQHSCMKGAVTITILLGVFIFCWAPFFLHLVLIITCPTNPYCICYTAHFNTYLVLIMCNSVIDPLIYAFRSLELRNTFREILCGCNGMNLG

B1: Compound 22: Ac-Glu-cyclo[Cys-Ala-His-D-Phe-Arg-Trp-Cys]-NH2 (peptide)
peptide: Ac-ECAH[dF]RWC-NH2
modifications: disulfide 2-8
SMILES: CC(=O)N[C@@H](CCC(=O)O)C(=O)N[C@H]1CSSC[C@@H](C(N)=O)NC(=O)[C@H](Cc2c[nH]c3ccccc23)NC(=O)[C@H](CCCNC(=N)N)NC(=O)[C@@H](Cc2ccccc2)NC(=O)[C@H](Cc2c[nH]cn2)NC(=O)[C@H](C)NC1=O
melanocortin-1 receptor
  Ratios of EC50 values: MC1/4: > 3
  cAMP Assay (EC-50): 1.7 nM
melanocortin-3 receptor
  Ratios of EC50 values: MC3/4: > 20
  cAMP Assay (EC-50): 9.9 nM
melanocortin-4 receptor
  cAMP Assay (EC-50): < 0.5 nM
melanocortin-5 receptor
  Ratios of EC50 values: MC5/4: > 2560
  cAMP Assay (EC-50): 1280 nM

B2: Compound 14: Ac-Arg-cyclo[Cys-D-Ala-Pro-D-Phe(p-F)-Arg-Trp-Cys]-NH2 (peptide)
peptide: Ac-RC[dA]P[dPhe(4-F)]RWC-NH2
modifications: disulfide 2-8
SMILES: CC(=O)N[C@@H](CCCNC(=N)N)C(=O)N[C@H]1CSSC[C@@H](C(N)=O)NC(=O)[C@H](Cc2c[nH]c3ccccc23)NC(=O)[C@H](CCCNC(=N)N)NC(=O)[C@@H](Cc2ccc(F)cc2)NC(=O)[C@@H]2CCCN2C(=O)[C@@H](C)NC1=O
melanocortin-1 receptor
  Ratios of EC50 values: MC1/4: 7
  cAMP Assay (EC-50): 169 nM
melanocortin-3 receptor
  Ratios of EC50 values: MC3/4: > 400
  cAMP Assay (EC-50): > 10000 nM
melanocortin-4 receptor
  cAMP Assay (EC-50): 24 nM
melanocortin-5 receptor
  Ratios of EC50 values: MC5/4: 12
  cAMP Assay (EC-50): 283 nM

B3: Compound 8: Ac-Arg-cyclo[Cys-D-Ala-Gln-D-Phe-Arg-Trp-Cys]-NH2 (peptide)
peptide: Ac-RC[dA]Q[dF]RWC-NH2
modifications: disulfide 2-8
SMILES: CC(=O)N[C@@H](CCCNC(=N)N)C(=O)N[C@H]1CSSC[C@@H](C(N)=O)NC(=O)[C@H](Cc2c[nH]c3ccccc23)NC(=O)[C@H](CCCNC(=N)N)NC(=O)[C@@H](Cc2ccccc2)NC(=O)[C@H](CCC(N)=O)NC(=O)[C@@H](C)NC1=O
melanocortin-1 receptor
  Ratios of EC50 values: MC1/4: 40
  cAMP Assay (EC-50): 71 nM
melanocortin-3 receptor
  Ratios of EC50 values: MC3/4: 5
  cAMP Assay (EC-50): 8.6 nM
melanocortin-4 receptor
  cAMP Assay (EC-50): 1.6 nM
melanocortin-5 receptor
  Ratios of EC50 values: MC5/4: 155
  cAMP Assay (EC-50): 255 nM

## Ac-RC[dV]H[dF]RWC-NH2 (disulfide 2-8) [Compound 4: Ac-Arg-cyclo[Cys-D-Val-His-D-Phe-Arg-Trp-Cys]-NH2]
melanocortin-1 receptor
  Ratios of EC50 values: MC1/4: 0.93
  cAMP Assay (EC-50): 1.25 nM
melanocortin-3 receptor
  Ratios of EC50 values: MC3/4: 1.19
  cAMP Assay (EC-50): 1.59 nM
melanocortin-4 receptor
  cAMP Assay (EC-50): 1.34 nM
melanocortin-5 receptor
  Ratios of EC50 values: MC5/4: 584
  cAMP Assay (EC-50): 782 nM

B4: Compound 9: Ac-Arg-cyclo[Cys-D-Ala-Asn-D-Phe-Arg-Trp-Cys]-NH2 (peptide)
peptide: Ac-RC[dA]N[dF]RWC-NH2
modifications: disulfide 2-8
SMILES: CC(=O)N[C@@H](CCCNC(=N)N)C(=O)N[C@H]1CSSC[C@@H](C(N)=O)NC(=O)[C@H](Cc2c[nH]c3ccccc23)NC(=O)[C@H](CCCNC(=N)N)NC(=O)[C@@H](Cc2ccccc2)NC(=O)[C@H](CC(N)=O)NC(=O)[C@@H](C)NC1=O
melanocortin-1 receptor
  Ratios of EC50 values: MC1/4: 90
  cAMP Assay (EC-50): 248 nM
melanocortin-3 receptor
  Ratios of EC50 values: MC3/4: 30
  cAMP Assay (EC-50): 81 nM
melanocortin-4 receptor
  cAMP Assay (EC-50): 3 nM
melanocortin-5 receptor
  Ratios of EC50 values: MC5/4: 530
  cAMP Assay (EC-50): 1490 nM

B5: Compound 11: Ac-Arg-cyclo[Cys-D-Ala-Tyr-D-Phe-Arg-Trp-Cys]-NH2 (peptide)
peptide: Ac-RC[dA]Y[dF]RWC-NH2
modifications: disulfide 2-8
SMILES: CC(=O)N[C@@H](CCCNC(=N)N)C(=O)N[C@H]1CSSC[C@@H](C(N)=O)NC(=O)[C@H](Cc2c[nH]c3ccccc23)NC(=O)[C@H](CCCNC(=N)N)NC(=O)[C@@H](Cc2ccccc2)NC(=O)[C@H](Cc2ccc(O)cc2)NC(=O)[C@@H](C)NC1=O
melanocortin-1 receptor
  Ratios of EC50 values: MC1/4: 6.67
  cAMP Assay (EC-50): 301 nM
melanocortin-3 receptor
  Ratios of EC50 values: MC3/4: > 22.2
  cAMP Assay (EC-50): > 1000 nM
melanocortin-4 receptor
  cAMP Assay (EC-50): 45.1 nM

B6: Compound 10: Ac-Arg-cyclo[Cys-D-Ala-Arg-D-Phe-Arg-Trp-Cys]-NH2 (peptide)
peptide: Ac-RC[dA]R[dF]RWC-NH2
modifications: disulfide 2-8
SMILES: CC(=O)N[C@@H](CCCNC(=N)N)C(=O)N[C@H]1CSSC[C@@H](C(N)=O)NC(=O)[C@H](Cc2c[nH]c3ccccc23)NC(=O)[C@H](CCCNC(=N)N)NC(=O)[C@@H](Cc2ccccc2)NC(=O)[C@H](CCCNC(=N)N)NC(=O)[C@@H](C)NC1=O
melanocortin-1 receptor
  Ratios of EC50 values: MC1/4: 2.31
  cAMP Assay (EC-50): 6.2 nM
melanocortin-3 receptor
  Ratios of EC50 values: MC3/4: 1.45
  cAMP Assay (EC-50): 3.9 nM
melanocortin-4 receptor
  cAMP Assay (EC-50): 2.7 nM

## Ac-RC[dA][His(1-Me)][dF]RWC-NH2 (disulfide 2-8) [Compound 6: Ac-Arg-cyclo[Cys-D-Ala-His(1-Me)-D-Phe-Arg-Trp-Cys]-NH2]
melanocortin-1 receptor
  cAMP Assay (EC-50): 30.4 nM
melanocortin-3 receptor
  cAMP Assay (EC-50): 4.3 nM
melanocortin-5 receptor
  cAMP Assay (EC-50): 467 nM

## RCAHFRWC (cysteine pairing not given here; also: further groups not given here) [Peptide 1]
melanocortin-5 receptor
  cAMP Assay (EC-50): 1600 nM
